# Assay results reported in US20100234274A1, “Use of Nestafin-1 in the Treatment for Diabetes” (priority 2009, published 2010).
# T1: recombinant nesfatin-1 (UniProt P81117)
# T1 sequence: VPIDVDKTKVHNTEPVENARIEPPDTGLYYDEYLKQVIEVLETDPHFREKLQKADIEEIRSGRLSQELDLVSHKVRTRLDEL
# Tests used:
# db/db mice [1] = assay: Inhibitor pre-treatment before i.v. nesfatin-1 in db/db mice, blood glucose; format: in vivo, mouse; conditions: blood glucose in 6 hours
# Method: GW9662, a PPAR-gamma irreversible inhibitor, was i.v. injected into the tail vein of db/db mice at the dose of 0.45 μg per gram body weight. After 30 minutes, 100 ug Nesfatin-1 was injected into the tail vein of db/db mice. Blood glucose was measured in 6 hours.
# Compound C, a 5′-AMP-activated protein kinase (AMPK) specific inhibitor, was intraperitoneally injected to db/db mice at the dose of 20 mg per kg body weight. Subsequently, 100 ug Nesfatin-1 was injected into the tail vein of db/db mice. Blood glucose was measured in 6 hours.
# db/db mice [2] = assay: i.v. injection of plasmin inhibitors in db/db mice (serum nesfatin-1, food intake, body weight); format: in vivo, mouse; conditions: for circulating nesfatin-1: serum at 30 minutes
# Method: Lower nesfatin-1 in “saline” than “ff db/db” (FIG. 3b) was due to blood dilution after injection. (b) Reduction in body weight after a 3-day i.v. AMCA (15 mg/day); (c) Food intake at day 3 during a 3-day i.v. AMCA (15 mg/day).
# Hypothalamus in acetic acid supplemented with protease inhibitor cocktail tablets (Roche, Indianapolis, Ind.) was homogenized, sonicated and heated at 95° C. for 15 minutes. The samples were then centrifuged at 13,200 rpm at 4° C. for 30 minutes. The supernatants were finally collected as their protein contents were determined by the Bradford assay (Thermo-Fisher Sci. Rockford, Ill.). Mouse serum was freshly prepared by drawing blood through ophthalmectomy. About […] hypothalamic total proteins or 25 μL serum were analyzed with Waters Delta 600E/2487/717 HPLC system using an analytical C18 reverse phase column (4.6×250 mm/5 μm, Hambon, Zhangjiagang, Conn.). Nesfatin-1 was eluted with a linear gradient from 20%-40% solvent B (solvent A: water with 0.1% trifluoroacetic acid, solvent B: acetonitrile with 0.1% trifluoroacetic acid) for 20 minutes at the flow rate of iml/minute. The purified nesfatin-1 was used as the standard to determine the retention time and plot the standard curve. The fraction collected at the retention time was sent for the mass spectrometry analysis.
# It is unknown how nesfatin-1 is cleared from circulation. The tiny amount of plasmin generation in periphery was previously reported and confirmed in our study (data not shown). AMCA and aprotinin, two inhibitors of plasmin, was i.v. injected to db/db. The reduction in food intake and body weight was seen while circulating nesfatin-1 was increased (FIG. 8). […] Therefore, peripheral nesfatin-1 was believed at least partially to be degraded by plasmin.
# recombinant nesfatin-1 = target: T1, recombinant nesfatin-1
# rats [3] = conditions: cited from earlier work
# plasmin = plasmin (Homo sapiens, UniProt P00747); assay: Incubation of recombinant nesfatin-1 with plasmin; format: biochemical
# plasmin, sequence (P00747 97-810, species assumed): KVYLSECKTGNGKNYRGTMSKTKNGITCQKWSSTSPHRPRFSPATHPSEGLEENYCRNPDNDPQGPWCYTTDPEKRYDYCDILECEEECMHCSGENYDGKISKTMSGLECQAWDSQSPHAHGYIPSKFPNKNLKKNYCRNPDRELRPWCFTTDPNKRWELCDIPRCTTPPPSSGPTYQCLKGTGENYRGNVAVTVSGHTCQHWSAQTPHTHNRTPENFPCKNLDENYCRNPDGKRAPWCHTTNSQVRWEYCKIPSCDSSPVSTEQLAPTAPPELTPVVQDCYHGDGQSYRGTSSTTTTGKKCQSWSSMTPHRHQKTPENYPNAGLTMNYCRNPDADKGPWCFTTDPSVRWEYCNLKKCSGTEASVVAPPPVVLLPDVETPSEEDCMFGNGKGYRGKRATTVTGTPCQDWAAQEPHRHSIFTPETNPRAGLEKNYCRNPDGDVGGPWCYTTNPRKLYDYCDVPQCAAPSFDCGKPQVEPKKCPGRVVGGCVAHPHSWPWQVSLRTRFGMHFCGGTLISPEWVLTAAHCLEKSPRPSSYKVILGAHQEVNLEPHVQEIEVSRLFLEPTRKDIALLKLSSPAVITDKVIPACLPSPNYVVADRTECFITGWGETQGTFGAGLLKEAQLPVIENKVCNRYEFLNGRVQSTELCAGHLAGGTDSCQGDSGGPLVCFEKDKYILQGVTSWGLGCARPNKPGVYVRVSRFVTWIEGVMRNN
# plasmin, sequence (P00747 97-580 partner limits assumed, species assumed): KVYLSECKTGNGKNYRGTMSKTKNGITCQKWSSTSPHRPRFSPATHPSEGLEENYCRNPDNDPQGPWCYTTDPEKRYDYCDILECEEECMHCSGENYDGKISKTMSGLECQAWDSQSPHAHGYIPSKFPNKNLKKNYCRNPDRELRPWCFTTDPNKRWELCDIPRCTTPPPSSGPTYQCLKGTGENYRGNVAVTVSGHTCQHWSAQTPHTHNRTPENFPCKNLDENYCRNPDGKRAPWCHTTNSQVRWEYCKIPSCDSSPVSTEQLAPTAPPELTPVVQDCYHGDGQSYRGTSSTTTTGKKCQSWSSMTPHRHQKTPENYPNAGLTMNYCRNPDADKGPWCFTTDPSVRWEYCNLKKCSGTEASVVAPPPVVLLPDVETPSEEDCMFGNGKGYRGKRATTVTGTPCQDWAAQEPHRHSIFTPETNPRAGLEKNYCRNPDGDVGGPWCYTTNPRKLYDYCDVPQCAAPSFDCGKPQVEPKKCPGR
# Method: Arrows indicated the putative cleavage sites by plasmin. (b) Nesfatin-1 was completely digested by plasmin within 2 hours.
# The recovery of hypothalamic nesfatin-1 in plg^−/−lepr^−/− was consistent to its normalization in food intake and body weight (FIG. 2ac). Fasted mice always had less nesfatin-1 in hypothalamus than their freely feeding counterparties (FIG. 5b). Furthermore, plasminogen deficiency provided a unique approach to study the chronic effect of elevated nesfatin-1 in hyperphagic obese animals, which was impossible for the i.c.v. or i.p. administration due to the short half-time of nesfatin-1. Consequently, agrp and npy were found reduced in plg^−/−lepr^−/−, while pomc was elevated compared with plg^+/+lepr^−/− (FIG. 6), contradicting to the previous report that i.c.v. nesfatin-1 didn't alter the expression of pomc, npy and agrp. Consistent to the present finding, the same group reported the up-regulation of pomc by i.p. nesfatin-1 in NTS recently.
# wild-type mice = assay: Intraperitoneal glucose tolerance test (IGTT) in wild-type mice; format: in vivo, mouse; conditions: 100 μg nesfatin-1, i.v. injection of 1.5 g/kg glucose
# Method: Mice of the investigated genotype (plg^+/+lepr^−/−, plg^−/−lepr^−/−, plg^+/+lepr^+/+, plg^−/−lepr^+/+) were fasted for 18 hours at 8, 16 and 24 weeks old, before blood sampling from tail veins to measure fasting blood glucose using a glucose meter (Accu-Chek, Roche). Mice serum insulin was measured at the age of 12 weeks by ELISA (ALPCO, Salem, N.H.). IGTT was performed previously. As briefly, 12-week old mice were placed in clean cages without food at 4 pm on the day prior to the experiment. […] Blood glucose was measured immediately before and at 10, 20, 30, 60, 90, 120, and 180 minutes after the injection of glucose.
# (§1) Amazingly as described above, the diabetic symptoms of db/db mice were essentially eliminated in plg^−/−lepr^−/−, which couldn't be possibly explained by the anorexigenic effect of nesfatin-1.
# db/db mice [4] = assay: Blood glucose after i.v. nesfatin-1 in db/db mice; format: in vivo, mouse
# ob/ob mice = assay: Blood lipid analysis after i.v. nesfatin-1 in ob/ob mice; format: in vivo, mouse; conditions: 100 ug tail vein, 3 hours after injection
# Method: One hundred ug Nesfatin-1 was injected into the tail vein of ob/ob mice. Blood samples were taken 3 hours after the injection for lipid analysis.
# [5] = Clearance of i.v. nesfatin-1 from circulation; format: in vivo, mouse
# [6] = both directions, nonsaturable system; cited from earlier work
# [7] = i.c.v. or i.p. injection; cited from earlier work
# [8] = tested on: Streptozotocin-induced type-I diabetic C57BL/6J mice; assay: Streptozotocin-induced type-I diabetic mice, blood glucose; format: in vivo; conditions: 100 μg/mouse i.v. alone or combined with s.c. insulin (2 ng/mouse)
# Method: as §1
# Male C57BL/6J mice (10 weeks) were given intraperitoneal injections of Streptozotocin (STZ) in sodium citrate (pH 4.5) on two consecutive days (100 mg/kg/day). Blood glucose was measured by tail vein sampling using the glucose oxidase enzymatic test. Diabetes was defined as a morning blood glucose reading of >16 mM after STZ. When blood glucose levels exceeded 30 mM, diabetic mice were given 16 ng of porcine insulin (Wangbang, Xuzhou, Conn.) every second day to prevent weight loss while maintaining blood glucose levels within the hyperglycemic range (16-30 mM). Nesfatin-1 (100 μg/mouse) was i.v. injected either alone or combined with s.c. insulin (2 ng/mouse) to STZ-induced type-I diabetic mice.
# rats [9] = conditions: injected directly into the brain of rats; cited from earlier work
molecule,measurement,setting,value
O=C(Nc1ccccc1)c1cc([N+](=O)[O-])ccc1Cl [GW9662],inhibition of the anti-diabetic effect of nesfatin-1,"db/db mice [1]; 0.45 μg per gram body weight i.v., 30 minutes before 100 ug nesfatin-1",fully inhibited
"NC[C@H]1CC[C@H](C(=O)O)CC1 [AMCA, tranexamic acid]",body weight,db/db mice [2],reduction
same,food intake,db/db mice [2],reduction
same,circulating nesfatin-1,db/db mice [2],increased
c1cc(-c2cnn3cc(-c4ccc(OCCN5CCCCC5)cc4)cnc23)ccn1 [Compound C],inhibition of the anti-diabetic effect of nesfatin-1,db/db mice [1]; 20 mg per kg body weight intraperitoneally before 100 ug nesfatin-1,fully inhibited
plasmin,degradation of recombinant nesfatin-1 on incubation with plasmin,recombinant nesfatin-1,It was then incubated with plasmin and rapidly degraded as expected
same,digestion of nesfatin-1 by plasmin (in vitro incubation),recombinant nesfatin-1,Nesfatin-1 was completely digested by plasmin within 2 hours
aprotinin,body weight,db/db mice [2],reduction
same,food intake,db/db mice [2],reduction
same,circulating nesfatin-1,db/db mice [2],increased
nesfatin-1: recombinant nesfatin-1 expressed and purified from genetically engineered E. coli; secreted N-terminus fragment of NUCB2 (protein) peptide: VPIDVDKTKVHNTEPVENARIEPPDTGLYYDEYLKQVIEVLETDPHFREKLQKADIEEIRSGRLSQELDLVSHKVRTRLDEL,neuropsychological effect,rats [3],increasing anxiety and fear-related behaviors
same,time to complete digestion by plasmin,plasmin; FIG. 4b,≤ 2 h
same,degradation on incubation with plasmin,plasmin; recombinant nesfatin-1 from E. coli,rapidly degraded
same,uptake of blood sugar during IGTT,wild-type mice,significantly enhanced the uptake of blood sugar
same,blood glucose,"db/db mice [4]; 100 μg i.v., freely fed db/db",significantly reduced
same,diabetic improvement,"db/db mice [4]; i.c.v. injection, db/db, data not shown",little diabetic improvement
same,duration of anti-diabetic effect,db/db mice [4]; i.v.,> 6 h
same,dose and time dependence of anti-diabetic effect,"db/db mice [4]; i.v., FIG. 7d, e",dose- and time-dependent
same,HDL in blood,ob/ob mice,unaffected
same,LDL in blood,ob/ob mice,significantly reduced
same,total cholesterol in blood,ob/ob mice,significantly reduced
same,triglyceride in blood,ob/ob mice,significantly reduced
same,clearance in plg−/− versus plg+/+,"[5]; i.v., data not shown",cleared much slower
same,half-life in circulation,"[5]; mouse, in vivo",10 min
same,blood brain barrier crossing,[6],crosses the Blood Brain Barrier (BBB)
same,body weight,[7],reduces body weight
same,food intake,[7],inhibits food intake
same,blood glucose,[8],decreased only when nesfatin-1 was injected with s.c. insulin
"NUCB2: hypothalamus-secreted protein containing 396 amino acids, precursor of nesfatin-1 (protein, UniProt P80303 25-420, looked up) Nucleobindin-2: VPIDIDKTKVQNIHPVESAKIEPPDTGLYYDEYLKQVIDVLETDKHFREKLQKADIEEIKSGRLSKELDLVSHHVRTKLDELKRQEVGRLRMLIKAKLDSLQDIGMDHQALLKQFDHLNHLNPDKFESTDLDMLIKAATSDLEHYDKTRHEEFKKYEMMKEHERREYLKTLNEEKRKEEESKFEEMKKKHENHPKVNHPGSKDQLKEVWEETDGLDPNDFDPKTFFKLHDVNSDGFLDEQELEALFTKELEKVYDPKNEEDDMVEMEEERLRMREHVMNEVDTNKDRLVTLEEFLKATEKKEFLEPDSWETLDQQQFFTEEELKEYENIIALQENELKKKADELQKQKEELQRQHDQLEAQKLEYHQVIQQMEQKKLQQGIPPSGPAGELKFEPHI",body weight,rats [9],decreases body weight
same,feeding,rats [9],promotes anorexia
